Experimental data: the supplement of paper PMC9170038

tested on: MS2 coat protein; assay: apparent KD of MS2 coat protein; higher = weaker reporter binding; details: Eterna round: R107; input ligand: theophylline 20 uM
Protocol: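 RNA-MaP round R107: designed RNA switches with theophylline, tryptophan, arginine or FMN aptamers are transcribed on-chip within common flanks. They are titrated with SNAP-549-labelled MS2 coat protein in RNA-MaP buffer (100 mM Tris pH 7.5, 80 mM KCl, 4 mM MgCl2), without ligand or with the indicated ligand. Median apparent KD per design.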

Question: Which “apparent KD of MS2 coat protein” value does the source give for “ACGUCCGGAUUGAUCGUGGGCAUGGUCGAUACCAGUAUUUUAAUCUACCCUUGGCAGCGACAUGAGGAUCACCCAUGUGCGAUGA [XTheo A #19]” here?
Answer: The value was 21.5 nM.

Question: For “GCGACCCUGAGAUCCUGCGUAACGUGAACACGAGGACCGGUACGGCCGCCACUCGAGAGAACAUGAGGAUCACCCAUGUCUGAGC [e-trypA-0(N)]”, which “apparent KD of MS2 coat protein” value is on record?
Answer: Its value is 28.4 nM.

Question: Which “apparent KD of MS2 coat protein” value does the source give for “AAUGGGCGAGUAGAGCAUAAUUUCCACUCCCGAGGACCGGUACGGCCGCCACUCGUUCGCUCACAUGAGGAUCACCCAUGUGGUC [theeternabot_exclusion_MS2_Trp_A_17]” here?
Answer: The value was 32.3 nM.

Question: Which “apparent KD of MS2 coat protein” value does the source give for “UAUAUUGUGAUGGAUACCAGCAGAGAAAACGUUUAUCCUAACAUGAGGAUCACCCAUGUAUGCCCUUGGCAGCUGUUGUGGUAUA [8.P]” here?
Answer: The value was 55.3 nM.

Question: For “UUUAAAAUCAGAAGGAGCGUGAUAAACAUGAGGAUCACCCAUGUCGAAAAUUUAAUAUAAUCACAGGUAGGUCGCUGUAAUAUUU [Same State - Ariginine B]”, which “apparent KD of MS2 coat protein” value is on record?
Answer: The value was 18.6 nM.

Question: With “AAUUCCUAACAUGAGGAUCACCCAUGUGAAGGAGCGCCGAAUAAGGCAGGUAGGUCGCACAUGGAACCGCUACGAAAGUAGCAAA” as the sequence, how does the “apparent KD of MS2 coat protein” value read?
Answer: The value was 23.6 nM.

Question: Which “apparent KD of MS2 coat protein” value does the source give for “UGGUACAUGGCGGCCGCCACUUCACGUAAAAUAAAAACUUGAGGAUCACCCAAGUAAUAAGUUGGGAGGACCGGGUCAUGUACCU” here?
Answer: Its value is 23.2 nM.

Question: With “UAACAUGAGGAUCACCCAUGUUUAGAAGAACGAGGACCGGUACGGCCGCCACUCGAAAAGUGGAAGAAAAGAGGGAUAGAAUGAU [Same State Trp A GF1]” as the sequence, how does the “apparent KD of MS2 coat protein” value read?
Answer: Its value is 16 nM.

Question: With “AUCAUAAUAGACUCGUUAGAUUAUAUGGAACGAGGACCGGUACGGCCGCCACUCGUGAUGUACAUGAGGAUCACCCAUGUUAGCU [JR_Nu_SSTryptoA_Sub025]” as the sequence, how does the “apparent KD of MS2 coat protein” value read?
Answer: Its value is 18.8 nM.

Question: How did the “apparent KD of MS2 coat protein” value turn out when “ACCGCAUCCGUAUAGGAUGCGGCCCAUGAAGGAGCGUGGGAAACCACAGGUAGGUCGCAUGACAUGAGGAUCACCCAUGUUUAUU [Matrix]” was run?
Answer: The value was 52.7 nM.

Question: How did the “apparent KD of MS2 coat protein” value turn out when “CCCAACAUGAGGAUCACCCAUGUUCCGGGUCGAGGACCGGUACGGCCGCCACUCGGUAUGAUGGGUGUGCAGCGUAUCUGCACCA [theeternabot_sameState_MS2_Trp_A_22]” was run?
Answer: The value was 61.1 nM.

Question: Which “apparent KD of MS2 coat protein” value does the source give for “CACGCACGAUCGGCCGCCACUCAUGUAGCUUACAUGAGGAUCACCCAUGUAUUUUCUUUCUUAUAGAGGACCGGGAUCGUGCGUG [#04 Same State - Tryptophan B]” here?
Answer: The value was 28.2 nM.

Question: With “ACAUGAGGAUCACCCAUGUCUGCCUCGGAUACCAGCGGAAGAAAACGCCCUUGGCAGCCGAACAUGAGGAUCACCCAUGUAGGCU [Same State Theophylline A GF30]” as the sequence, how does the “apparent KD of MS2 coat protein” value read?
Answer: Its value is 55.1 nM.

Question: Which “apparent KD of MS2 coat protein” value does the source give for “AGCUCGACUCGCAGCUGGAUGCCCGCUUGCCGAGGACCGGUACGGCCGCCACUCGUCACUCGACAUGAGGAUCACCCAUGUGAUA [theeternabot_exclusion_MS2_Trp_A_32]” here?
Answer: The value was 136 nM.

Question: For “CCGUUUUAUGGCGACAUAGGGCGGACUGAAGGAGCGGUGAAUAAGCCAGGUAGGUCGCAGAGAUCCACAUGAGGAUCACCCAUGU [!0.aD]”, which “apparent KD of MS2 coat protein” value is on record?
Answer: The value was 62.2 nM.

Question: How did the “apparent KD of MS2 coat protein” value turn out when “GGUUGAUAUAUAUAUAUAUUGAUUACUGAAGGAGCGGGAAAUAACCCAGGUAGGUCGCAGAGAUCCACAUGAGGAUCACCCAUGU [!0.F]” was run?
Answer: The value was 50.4 nM.

Question: “ACACGGAAUGAUGGAUCACCUCGUUAAUAACGAGGACCGGUACGGCCGCCACUCGAAAACCGUGACCUGUACGAAAAGUGCAGGA [TrypAS 15 #SwitchBubble #HomemadeMS2 #StaticStrem #MS2Early]” was tested. Which “apparent KD of MS2 coat protein” value did it give?
Answer: The value was 314 nM.

Question: “AUUCAUAACUGAAGGAGCGUGAUAUAAAUUUUUACAUGAGGAUCACCCAUGUUUCAUAGAUCACAGGUAGGUCGCAGAUUCUCAU [JR_SSArginiB_Sub011]” was tested. Which “apparent KD of MS2 coat protein” value did it give?
Answer: The value was 42.4 nM.

Question: How did the “apparent KD of MS2 coat protein” value turn out when “UCGAUGGUACCCGAUACCAGCAAUACAUCACAGACCUGAUACAUGAGGAUCACCCAUGUGUGCCCUUGGCAGCGGGUCCUGAAAA [theeternabot_exclusion_MS2_Theo_B_25]” was run?
Answer: The value was 28.5 nM.

Question: For “CACAGUGCGAAUUUGAAUUCGCACGAUCCUCGAGGACCGGUACGGCCGCCACUCGCGCGGGUCGUACAUGAGGAUCACCCAUGUC [Quermavebe]”, which “apparent KD of MS2 coat protein” value is on record?
Answer: Its value is 233 nM.

Question: “UGUAUGUGAUGGGAUACCAGACCAGCUGGUGAUACAUGAGGAUCACCCAUGUAAAUUUGGGUCCCUUGGCAGCCCAUCGCAUACU [SSTheo B #25]” was tested. Which “apparent KD of MS2 coat protein” value did it give?
Answer: Its value is 68 nM.

Question: “UCGUGUAUAACGGAUACCAGUGAGAAGGAUACAUGAGGAUCACCCAUGUGAGUUGAUGUACACCCUUGGCAGCUGUAUAUAUCUA [llpmullin]” was tested. Which “apparent KD of MS2 coat protein” value did it give?
Answer: The value was 81.9 nM.

same assay, conditions: Eterna round: R107; input ligand: theophylline 2 mM

Question: How did the “apparent KD of MS2 coat protein” value turn out when “UGUGUCGUCUGAAGGAGCGGCUCUUGAUCCUCGUGAGACAUGAGGAUCACCCAUGUCUCGAGCCAGGUAGGUCGCAGGCGGCACA [#26 Exclusion - Arginine B]” was run?
Answer: The value was 13.6 nM.

Question: With “ACAUUUAACUGAAGGAGCGUGAUAAACAUGAGGAUCACCCAUGUACCAAAGAUUUUCAGAUCACAGGUAGGUCGCAGACUAAUGA [JR_ExcArginiB_Sub015]” as the sequence, how does the “apparent KD of MS2 coat protein” value read?
Answer: Its value is 12.6 nM.

Question: How did the “apparent KD of MS2 coat protein” value turn out when “GAUUACAUGAGGAUCACCCAUGUAACUGAAGGAGCGGUAAUAAAGCCAGGUAGGUCGCAGAACAACAUGUGGUUCAUCCAUGUAA [#14 Exclusion - Arginine A]” was run?
Answer: The value was 26.8 nM.

Question: How did the “apparent KD of MS2 coat protein” value turn out when “GCGACCCUGAGAUCCUGCGUAACGUGAACACGAGGACCGGUACGGCCGCCACUCGAGAGAACAUGAGGAUCACCCAUGUCUGAGC [e-trypA-0(N)]” was run?
Answer: Its value is 26.4 nM.

Question: “AAUGGGCGAGUAGAGCAUAAUUUCCACUCCCGAGGACCGGUACGGCCGCCACUCGUUCGCUCACAUGAGGAUCACCCAUGUGGUC [theeternabot_exclusion_MS2_Trp_A_17]” was tested. Which “apparent KD of MS2 coat protein” value did it give?
Answer: Its value is 40.3 nM.

Question: “UUUAAAAUCAGAAGGAGCGUGAUAAACAUGAGGAUCACCCAUGUCGAAAAUUUAAUAUAAUCACAGGUAGGUCGCUGUAAUAUUU [Same State - Ariginine B]” was tested. Which “apparent KD of MS2 coat protein” value did it give?
Answer: The value was 16.5 nM.

Question: Which “apparent KD of MS2 coat protein” value does the source give for “AAUUCCUAACAUGAGGAUCACCCAUGUGAAGGAGCGCCGAAUAAGGCAGGUAGGUCGCACAUGGAACCGCUACGAAAGUAGCAAA” here?
Answer: Its value is 21.6 nM.

Question: Which “apparent KD of MS2 coat protein” value does the source give for “UGGUACAUGGCGGCCGCCACUUCACGUAAAAUAAAAACUUGAGGAUCACCCAAGUAAUAAGUUGGGAGGACCGGGUCAUGUACCU” here?
Answer: Its value is 19.2 nM.

Question: For “UAACAUGAGGAUCACCCAUGUUUAGAAGAACGAGGACCGGUACGGCCGCCACUCGAAAAGUGGAAGAAAAGAGGGAUAGAAUGAU [Same State Trp A GF1]”, which “apparent KD of MS2 coat protein” value is on record?
Answer: The value was 12.2 nM.

Question: How did the “apparent KD of MS2 coat protein” value turn out when “AUCAUAAUAGACUCGUUAGAUUAUAUGGAACGAGGACCGGUACGGCCGCCACUCGUGAUGUACAUGAGGAUCACCCAUGUUAGCU [JR_Nu_SSTryptoA_Sub025]” was run?
Answer: The value was 17 nM.

Question: With “ACCGCAUCCGUAUAGGAUGCGGCCCAUGAAGGAGCGUGGGAAACCACAGGUAGGUCGCAUGACAUGAGGAUCACCCAUGUUUAUU [Matrix]” as the sequence, how does the “apparent KD of MS2 coat protein” value read?
Answer: Its value is 40.9 nM.

Question: How did the “apparent KD of MS2 coat protein” value turn out when “CCCAACAUGAGGAUCACCCAUGUUCCGGGUCGAGGACCGGUACGGCCGCCACUCGGUAUGAUGGGUGUGCAGCGUAUCUGCACCA [theeternabot_sameState_MS2_Trp_A_22]” was run?
Answer: The value was 68.4 nM.

Question: For “CACGCACGAUCGGCCGCCACUCAUGUAGCUUACAUGAGGAUCACCCAUGUAUUUUCUUUCUUAUAGAGGACCGGGAUCGUGCGUG [#04 Same State - Tryptophan B]”, which “apparent KD of MS2 coat protein” value is on record?
Answer: The value was 24.5 nM.

Question: For “AGCUCGACUCGCAGCUGGAUGCCCGCUUGCCGAGGACCGGUACGGCCGCCACUCGUCACUCGACAUGAGGAUCACCCAUGUGAUA [theeternabot_exclusion_MS2_Trp_A_32]”, which “apparent KD of MS2 coat protein” value is on record?
Answer: The value was 140 nM.

Question: “CCGUUUUAUGGCGACAUAGGGCGGACUGAAGGAGCGGUGAAUAAGCCAGGUAGGUCGCAGAGAUCCACAUGAGGAUCACCCAUGU [!0.aD]” was tested. Which “apparent KD of MS2 coat protein” value did it give?
Answer: The value was 63.5 nM.

Question: How did the “apparent KD of MS2 coat protein” value turn out when “GGUUGAUAUAUAUAUAUAUUGAUUACUGAAGGAGCGGGAAAUAACCCAGGUAGGUCGCAGAGAUCCACAUGAGGAUCACCCAUGU [!0.F]” was run?
Answer: The value was 60.5 nM.

Question: For “ACACGGAAUGAUGGAUCACCUCGUUAAUAACGAGGACCGGUACGGCCGCCACUCGAAAACCGUGACCUGUACGAAAAGUGCAGGA [TrypAS 15 #SwitchBubble #HomemadeMS2 #StaticStrem #MS2Early]”, which “apparent KD of MS2 coat protein” value is on record?
Answer: Its value is 488 nM.

Question: With “AUUCAUAACUGAAGGAGCGUGAUAUAAAUUUUUACAUGAGGAUCACCCAUGUUUCAUAGAUCACAGGUAGGUCGCAGAUUCUCAU [JR_SSArginiB_Sub011]” as the sequence, how does the “apparent KD of MS2 coat protein” value read?
Answer: Its value is 42.9 nM.
